Experimental data from US7871610B2, “Antibodies to Tie1 ectodomain” (Dyax Corp., priority 2003, dated 2011).
“Also recorded” adds a separate entry of the source.

T1: Tie1-EpoR chimeric receptor (UniProt P14753+P35590)
T1 construct: the PCR amplified extracellular part of human Tie1 (bp 37-2316 of X60975); expressed in transfected cells
T1 sequence (P35590+P14753 with tags, fused parts or gaps): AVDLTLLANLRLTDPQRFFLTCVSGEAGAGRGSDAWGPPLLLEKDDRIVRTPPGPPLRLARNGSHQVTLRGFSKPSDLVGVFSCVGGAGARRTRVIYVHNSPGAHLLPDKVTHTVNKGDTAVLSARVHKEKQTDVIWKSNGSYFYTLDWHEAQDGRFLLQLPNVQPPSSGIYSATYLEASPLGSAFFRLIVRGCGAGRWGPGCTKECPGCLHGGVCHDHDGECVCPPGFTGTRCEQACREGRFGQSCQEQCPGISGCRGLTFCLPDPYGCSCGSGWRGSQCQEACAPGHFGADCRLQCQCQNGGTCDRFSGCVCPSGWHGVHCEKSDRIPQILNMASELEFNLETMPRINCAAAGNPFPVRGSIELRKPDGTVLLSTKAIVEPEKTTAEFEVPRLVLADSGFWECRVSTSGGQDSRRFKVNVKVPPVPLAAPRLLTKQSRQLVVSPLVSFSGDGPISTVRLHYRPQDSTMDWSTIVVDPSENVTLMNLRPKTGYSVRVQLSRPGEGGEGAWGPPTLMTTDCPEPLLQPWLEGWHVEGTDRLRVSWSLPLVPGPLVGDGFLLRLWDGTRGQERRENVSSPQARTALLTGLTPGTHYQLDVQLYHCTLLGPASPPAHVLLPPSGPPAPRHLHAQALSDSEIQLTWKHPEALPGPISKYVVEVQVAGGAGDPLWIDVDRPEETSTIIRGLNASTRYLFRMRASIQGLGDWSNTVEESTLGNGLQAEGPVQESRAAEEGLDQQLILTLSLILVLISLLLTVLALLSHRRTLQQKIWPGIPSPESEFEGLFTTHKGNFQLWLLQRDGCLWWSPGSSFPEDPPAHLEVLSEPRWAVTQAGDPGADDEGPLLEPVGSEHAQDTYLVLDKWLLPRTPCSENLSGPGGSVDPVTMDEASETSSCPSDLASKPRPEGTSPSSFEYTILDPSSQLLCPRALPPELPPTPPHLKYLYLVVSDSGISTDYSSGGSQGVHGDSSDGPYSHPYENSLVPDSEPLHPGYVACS


Columns and labels:
[1] = target: T1, Tie1-EpoR chimeric receptor; test: Ba/F3 bioassay (Tie1/EpoR chimeric BaF3 cell assay), MTT viability; format: cell-based, human; conditions: 100 ng/ml E3 IgG together with 100 (1:1) or 500 (1:5) ng/ml of the other antibody
Source text: To generate Tie1-EpoR expressing Ba/F3 cells for the bioassay, Ba/F3 pre-B cells were stably transfected with a nucleic acid that expresses chimeric receptor containing the extracellular domain of human Tie1 fused with the transmembrane and cytoplasmic domains of the mouse erythropoietin receptor. The nucleic acid used was a Tie1-EpoR chimeric cDNA in a pEF-BOS expression vector. The nucleic acid encoding the chimeric receptor was constructed by cloning the PCR amplified extracellular part of human Tie1 (bp 37-2316 of X60975) as EcoRI-BglII fragment into mEpoR-pcDNA vector. The cDNA encoding for the chimeric receptor consisting of the extracellular part of Tie1 fused with the transmembrane and intracellular domains of EpoR was subcloned into the pEF-BOS expression vector. Vector was linearized and co-transfected into Ba/F3 cells with pcDNA3.1(+) Zeo vector (Invitrogen). Stable cell pools were generated by selection with 250 μg/ml Zeocin. The expression of Tie1/EpoR fusion protein in several clones was analyzed by Western blotting with an antibody against EpoR.
To perform the assays, Ba/F3 cells expressing the Tie 1-EpoR chimera were split in 96-well microtiter plates at 50 000 cells/well in the presence of the indicated concentrations of anti-Tie1 antibodies. As controls, Zeocin resistant pools not expressing the Tie1-EpoR were used. After 48 h, the viability of the cells was determined by adding MTT (3-(4,5-dimethylthiazol-2-yl)-2,5-diphenyl tetrazolium bromide (Sigma), 0.5 mg/ml), followed by further 2 h of culture, addition of an equal volume of cell lysis solution (10% SDS, 10 mM HCl) and incubation overnight at 37° C. Absorbance was measured at 540 nm.
Although no ligand for Tie1 has been identified, we used the following efficient screening method for Tie1-binding proteins. Interleukin-3 dependent pre-B-lymphocyte (Ba/F3) cells were transfected with a construct that expresses a Tie1-EpoR fusion protein. Since Ba/F3 cells are IL-3 dependent, they die unless IL-3 is provided. However, Tie-EpoR receptor expressing Ba/F3 cells can survive and proliferate if the medium contains a Tie1-binding protein, either a natural ligand or an artificial mimetic. Cell survival can be quantitated, e.g., by colorimetric MTT-assay, which measures mitochondrial activity.

Tie1 = Tie1 (Homo sapiens, UniProt P35590); test: Immunohistochemistry of matched human tumor and normal tissue sections; parameters: from tissue; host or cells: fresh frozen normal and tumor tissue (e.g. lung, kidney, skin, breast); conditions: fresh frozen tissue
Experimental: The Tie-1 antibodies were biotinylated using the EZ-link Sulfo-NHS-SS-Biotin (Pierce, Cat. 21331). For Tie-1/Fc and Tie-1-His, the reaction was performed for 2 hours on ice in 50 mM sodium carbonate buffer, pH 9.6, in the presence of a 5-fold molar excess of biotinylating agent. For the antibodies, the reaction was performed for 2 hours on ice in PBS, in the presence of a 15-fold molar excess of EZ-link Sulfo-NHS-SS-Biotin. The reaction was stopped by the addition of Tris-HCl, pH 7.5 (50 mM final concentration) followed by a 1-hour incubation on ice. Samples were then dialyzed against PBS.
Various normal and tumor tissue sections were stained with biotinylated antibodies. A mouse monoclonal anti-Tie1 antibody (7e8) (Alitalo laboratory, University of Helsinki) was used as a positive control. Sections without primary antibody served as negative control. All samples were fresh frozen tissues and staining was performed with the TSA-kit (Perkin-Elmer Life Sciences). After acetone fixation (10-20 min, −20° C.) the slides were treated with 0.73% H2O2 for 10 min to reduce endogenous peroxidase activity followed by blocking for 30 min with TNB buffer. Sections ([…] thick) were incubated with primary antibodies (10 μg/ml) overnight at 4° C. Sections with the mouse monoclonal anti-tie1 antibody (7e8) were treated with biotinylated anti-mouse antibodies (VectaStain) before the addition of streptavidin-HRP. Signal was amplified by using a TSA kit and the visualized by AEC (235 ml NaAc, 15 ml AEC (stock solution: 1600 mg 3-amino-9-ethyl-carbazole and 480 ml N-dimethylformamide), 250 μl H2O2).

Chain of Tie1 (P35590 22-1138): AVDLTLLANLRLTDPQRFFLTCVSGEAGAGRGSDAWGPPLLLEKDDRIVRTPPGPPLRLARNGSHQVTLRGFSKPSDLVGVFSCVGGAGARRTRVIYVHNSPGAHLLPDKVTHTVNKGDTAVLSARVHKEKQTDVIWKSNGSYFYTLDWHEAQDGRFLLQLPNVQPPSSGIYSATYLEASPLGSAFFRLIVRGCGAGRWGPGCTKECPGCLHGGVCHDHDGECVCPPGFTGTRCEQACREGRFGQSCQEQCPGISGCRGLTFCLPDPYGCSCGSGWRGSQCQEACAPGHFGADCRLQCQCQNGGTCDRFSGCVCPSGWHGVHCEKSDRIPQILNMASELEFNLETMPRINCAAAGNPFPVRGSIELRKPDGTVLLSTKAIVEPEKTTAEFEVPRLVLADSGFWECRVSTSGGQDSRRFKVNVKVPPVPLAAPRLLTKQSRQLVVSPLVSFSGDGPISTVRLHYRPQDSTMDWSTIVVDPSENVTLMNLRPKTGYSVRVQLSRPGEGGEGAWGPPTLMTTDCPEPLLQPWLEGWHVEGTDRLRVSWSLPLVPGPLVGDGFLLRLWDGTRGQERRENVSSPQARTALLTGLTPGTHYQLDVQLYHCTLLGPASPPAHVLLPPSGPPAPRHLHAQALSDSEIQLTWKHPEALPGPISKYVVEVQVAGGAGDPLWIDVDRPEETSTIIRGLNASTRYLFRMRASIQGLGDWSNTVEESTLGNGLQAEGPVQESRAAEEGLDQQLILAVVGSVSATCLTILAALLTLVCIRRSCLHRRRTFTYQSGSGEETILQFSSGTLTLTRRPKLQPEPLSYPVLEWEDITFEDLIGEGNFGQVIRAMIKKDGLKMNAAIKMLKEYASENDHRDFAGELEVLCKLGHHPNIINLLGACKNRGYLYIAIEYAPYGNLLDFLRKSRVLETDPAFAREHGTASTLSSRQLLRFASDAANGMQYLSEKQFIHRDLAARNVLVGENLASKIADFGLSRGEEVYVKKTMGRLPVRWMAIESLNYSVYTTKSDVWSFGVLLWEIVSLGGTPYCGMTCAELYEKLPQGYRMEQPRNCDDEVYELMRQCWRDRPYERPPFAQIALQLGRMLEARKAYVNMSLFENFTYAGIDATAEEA

Row | Molecule | effect on the survival effect of E3 IgG in Tie1-EpoR Ba/F3 assay [1] | further results
1 | A10: anti-Tie1 antibody; VH SEQ ID NO:60, VL SEQ ID NO:62 (antibody, V domains shown, Synthetically generated peptide) VH: EVQLLESGGGLVQPGGSLRLSCAASGFTFSNYVMVWVRQAPGKGLEWVSGIYPSGGHTKYADSVKGRFTISRDNSKNTLYLQMNSLRAEDTAVYYCARVNYYDSSGYGPIAPGLDYWGQGTLV VL: HSAQDIQMTQSPGTLSLSPGERATLFCRASQRVTSNSLAWYQQRPGQAPRLLIYDASTRATGIPDRFSGSGSGRDFTLTISRLEPEDFAVYYCQRYGSSVLYSFGQGTKLEIT | inhibited the viability effect of E3 IgG to some extent | 
2 | A2: anti-Tie1 antibody; VH SEQ ID NO:56, VL SEQ ID NO:58; not the anti-streptavidin A2-SV (antibody, V domains shown, Synthetically generated peptide, anti-Tie1 antibody; not the anti-streptavidin A2-SV) VH: EVQLLESGGGLVQPGGSLRLSCAASGFTFSRYTMMWVRQAPGKGLEWVSGIYPSGGVTLYADSVKGRFTISRDNSKNTLYLQMNSLRAEDTAVYYCARVNYYDSSGYGPIAPGLDYWGQGTLVTVSSASTKGPSVFP VL: HSAQDIQMTQSPGTLSLSPGERATLSCRASRSVIISYVAWYQQKPGQAPRLLIYGASTRATGIPDRFSGSGSGTDFTLTISRLEPEDFAVYFCQLYGRSPRIIFGQGTRLEIK | inhibited the viability effect of E3 IgG to some extent | 
3 | G2: anti-Tie1 antibody; HC SEQ ID NO:110, LC SEQ ID NO:112 (antibody, Synthetically generated peptide) heavy: EVQLLESGGGLVQPGGSLRLSCAASGFTFSSYKMGWVRQAPGRGLEWVSSIYPSGGWTHYADSVKGRFTISRDNSKNTLYLQMNSLRAEDTAVYYCARVLLHYFDYWGQGTLVTVSSASTKGPSVFPLAPSSKSTSGAQRPWAAWSRTTSRDTGDGV light: QSVLTQPASVSGSPGQSITISCTGTSSDVGGYKYVSWYQQHPGKAPKLIISDVNNRPSGVSDRFSGSKSGNTASLTISGLQAEDDGDYYCSSYASSSYTSSTTWVFGG | promoted the survival | 
4 | C7: anti-Tie1 antibody; VH SEQ ID NO:76, VL SEQ ID NO:78 (antibody, V domains shown, Synthetically generated peptide) VH: EVQLLESGGGLVQPGGSLRLSCAASGFTFSRYVMYWVRQAPGKGLEWVSVIYPSGGATYYADSVKGRFTISRDNSKNTLYLQMNSLRAEDTAVYYCARRGSSGAFDYWGQGTLVTVSSASTKGPSVFP VL: HSAQSVLTQPASVSGSPGQSITISCTGTSSDIGRYNYASWYQQRPGKSPKLLIYEVSDRPSGVSNRFSGSKSGNTASLIISGLQAEDEADYYCSSYSSTNSLQVVFGGGTKLSVLGQPKAAPSVTLFPPSSEELQANKATLVCL | promoted the survival | 
5 | P-B3: anti-Tie1 antibody; VH SEQ ID NO:24, VL SEQ ID NO:26 (antibody, V domains shown, Synthetically generated peptide) VH: EVQLLESGGGLVQPGGSLRLSCAASGFTFSRYGMHWVRQAPGKGLEWVSVISPSGGMTYYADSVKGRFTISRDNTKNTLYLQMNSLRAEDTAVYYCARVGATGPFDIWGQGTMVTVSSASTKGPSVFPLAP VL: QDIQMTQSPATLSLSPGERATLSCRASQSVSTYLAWYQQKPGQAPRLLIYDASNRATGIPGRFSGSGSGTDFTLTISSLEAEDFAVYYCQQRSSWPITFGQG | inhibited the viability effect of E3 IgG to some extent | 
6 | P-C6: anti-Tie1 antibody; VH SEQ ID NO:28, VL SEQ ID NO:30 (antibody, V domains shown, Synthetically generated peptide) VH: EVQLLESGGGLVQPGGSLRLSCAASGFTFSHYGMTWVRQAPGKGLEWVSVISPSGGQTGYADSVKGRFTISRDNSKNTLYLQMNSLRAEDTAVYYCAGGGYAAFDYWGQGTLVTVSSASTKGPSVFPLAPSSKSTSGGTAALG VL: QDIQMTQSPATLSLSPGERATLSCRASQSVSSYLAWYQQKPGQAPRLLIYDASNRATGIPARFSGSGSGTDFTLTISSLEPEDFAVYYCQQRSNWPLTFGGG | inhibited the viability effect of E3 IgG to some extent | 
7 | B2: anti-Tie1 antibody; VH SEQ ID NO:64, VL SEQ ID NO:66 (antibody, V domains shown, Synthetically generated peptide) VH: EVQLLESGGGLVQPGGSLRLSCAASGFTFSIYGMAWVRQAPGKGLEWVSVISPSGGQTFYADSVKGRFTISRDNSKNTLYLQMNSLRAEDTAVYYCARVYYYGMDVWGQGTTVTVSSASTKGPSVFP VL: HSAQDIQMTQSPATLSLSPGERATLSCRASQSVSSYLAWYQQKPGQAPRLLIYDASNRATGIPARFSGSGSETDFTLTISSLEPEDFAVYYCQQRSKWPRTFGQGTKLEIK | completely blocked the viability; also recorded: blocked completely the survival effect of E3 IgG; also recorded: counteract the agonistic activity of E3 | staining of breast carcinoma (Tie1; 10 μg/ml): stained also other structures in addition to vessels; staining of kidney (Tie1; 10 μg/ml): only very faint staining of either tubules or vessels; staining of lung carcinoma (Tie1; 10 μg/ml): stained structures other than vessels; staining of melanoma tissue (Tie1; 10 μg/ml): also stained other surrounding structures; staining of normal lung (large veins) (Tie1; 10 μg/ml): did not stain the same veins; staining of normal skin (Tie1; 10 μg/ml): stained blood vessels very faintly; staining of vessels in normal tissues (tissue specificity) (Tie1; biotinylated IgG 10 μg/ml): stained vessels very faintly in other normal tissues than in the breast
